Molecular target: E. coli GyrB (DNA gyrase subunit B) (E. coli) (UniProt P0AES6)

Sequence of E. coli GyrA (DNA gyrase subunit A) (P0AES4 whole entry): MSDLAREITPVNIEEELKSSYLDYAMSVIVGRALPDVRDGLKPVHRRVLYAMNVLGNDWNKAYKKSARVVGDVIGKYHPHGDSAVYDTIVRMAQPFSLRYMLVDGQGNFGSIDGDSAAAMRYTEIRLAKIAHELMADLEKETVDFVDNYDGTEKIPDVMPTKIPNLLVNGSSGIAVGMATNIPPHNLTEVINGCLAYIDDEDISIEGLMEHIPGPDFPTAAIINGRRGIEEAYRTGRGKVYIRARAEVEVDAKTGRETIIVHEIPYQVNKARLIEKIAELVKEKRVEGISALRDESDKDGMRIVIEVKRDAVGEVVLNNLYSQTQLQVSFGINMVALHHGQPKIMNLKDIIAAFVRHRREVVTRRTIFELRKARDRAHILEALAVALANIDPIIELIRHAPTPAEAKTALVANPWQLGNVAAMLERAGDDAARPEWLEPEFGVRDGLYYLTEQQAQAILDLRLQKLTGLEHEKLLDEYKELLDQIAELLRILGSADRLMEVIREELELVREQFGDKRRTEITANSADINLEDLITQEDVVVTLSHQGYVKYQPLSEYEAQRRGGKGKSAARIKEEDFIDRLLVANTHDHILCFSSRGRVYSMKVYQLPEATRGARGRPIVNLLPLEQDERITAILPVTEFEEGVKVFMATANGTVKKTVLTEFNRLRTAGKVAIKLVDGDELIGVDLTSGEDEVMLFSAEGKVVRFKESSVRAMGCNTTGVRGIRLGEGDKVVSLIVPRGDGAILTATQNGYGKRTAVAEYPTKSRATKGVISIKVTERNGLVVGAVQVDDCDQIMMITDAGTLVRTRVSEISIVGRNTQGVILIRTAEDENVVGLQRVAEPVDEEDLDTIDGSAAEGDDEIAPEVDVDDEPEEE

“E. coli GyrA (DNA gyrase subunit A) (from UniProt P0AES4 1-875) (enzyme)” gave a supercoiling of relaxed pMP1000 plasmid by gyrase reconstituted from the two purified subunits; time course 5-80 s after ATP, 30 °C, chloroquine gel (supercoils/sec) of 5.
